Tests used:
[1] = molecular target: F-actin (polymerised chicken muscle G-actin) (chicken) (UniProt P68139); experiment: co-sedimentation
[2] = molecular target: E-cadΔ70/α monomer (recombinant; E-cadherin cytoplasmic tail lacking the C-terminal 70 aa fused to αE-catenin) (mouse) (UniProt P09803); experiment: ITC
[3] = molecular target: E-cad/α monomer (recombinant; entire E-cadherin cytoplasmic tail fused to αE-catenin) (mouse) (UniProt P09803); experiment: ITC

| Kd [1] [nM] | Kd [2] [nM] | dH [2] [kcal/mol] | stoichiometry N [2] | Kd [3] [nM] | dH [3] [kcal/mol] | Substance |
| --- | --- | --- | --- | --- | --- | --- |
| 1600 |  |  |  |  |  | E-cadΔ70/α homodimer (recombinant) (from UniProt P09803 736-815) (complex) |
|  | 36.6 | -16.9 | 1 | 74 | -58 | β-catenin (full-length mouse, recombinant) (from UniProt Q02248 1-781) (natural protein) |

Reference: PMC4586751
